Reference: patent publication US20120135912A1 (PERSEID THERAPEUTICS, published 2012)
Where “and” joins values, the source holds several entries; their conditions need not be identical. Equal entries are not always repeated.

B1: 2D-VCAM-1 variant Clone 46 (ligand)
chain: FKIETTPESRYLAQIGDSVSLTCSTTGCESPFFSWRPQLDAPLNGKVTNEGTTSTLTMNPVSFGNEHSYLCTATCESRKLEKGIQVEIYSFPKDPEIHLSGPLEAGKPITVKCSVADVYPFDRLEIDLLKGDHLMKSQEFLEDADRKSLETKSLEVTFTPVIEDIGKVLVCRAKLHIDEMDSVPTVRQAVKELQVYISP
notes: also called Clone 046; not shown: His tag
B2: 2D-VCAM-1 variant Clone 47 (ligand)
chain: FKIETTPESRYLAQIGDSVSLTCSTTGCESPFFSWRPLLDSPLNGKVTNEGTTSTLTMNPVSFGNEHSYLCTATCESRKLEKGIQVEIYSFPKDPEIHLSGPLEAGKPITVKCSVADVYPFDRLEIDLLKGDHLMKSQEFLEDADRKSLETKSLEVTFTPVIEDIGKVLVCRAKLHIDEMDSVPTVRQAVKELQVYISP
notes: also called Clone 047; not shown: His tag
B3: Q38L-2D-VCAM-1 (ligand)
chain: FKIETTPESRYLAQIGDSVSLTCSTTGCESPFFSWRTLIDSPLNGKVTNEGTTSTLTMNPVSFGNEHSYLCTATCESRKLEKGIQVEIYSFPKDPEIHLSGPLEAGKPITVKCSVADVYPFDRLEIDLLKGDHLMKSQEFLEDADRKSLETKSLEVTFTPVIEDIGKVLVCRAKLHIDEMDSVPTVRQAVKELQVYISP
notes: also called Q38L 2D-VCAM-1 polypeptide; not shown: His tag
B4: 2D-VCAM-1 variant Clone 146 (ligand, not shown: small tags and cut ends)
chain: FKIETTPESRYLAQIGDSVSLTCSTTGCESPLFFWRPLLDSPLNGKVTNEGTTSTLTMNPVSFGNEHSYLCTARCESRSLEKGIQVEIYSFPKDPEIHLSGPLEAGKPITVKCSVADVYPFDRLEIDLLKGDHLMKSQEFLEDADRKSLETKSLEVTFTPVIEDIGKVLVCRAKLHIDEMDSVPTVRQAVKELQVYISP
B5: 2D-VCAM-1 variant Clone 59 (ligand)
chain: FKIETTPESRYLAQIGDSVSLTCSTTGCESPFFSWRPLLDSPLNGKVTNEGTTSTLTMNPVSFGNEHSYLCTATCESRKLEKGIQVEIYSFPKDPEIHLSGPLEAGKPITVKCSVADVYPFDRLEIDLLKGDHLMKSQEFFEDAAWKSLETKSLEVTFTPVIEDIGKVLVCRAKLHIDEMDSVPTVRQAVKELQVYISP
notes: also called Clone 059; not shown: His tag

Key:
[1] = target: human VLA4 (integrin alpha4beta1) on the surface of U937 cells (human, UniProt P13612 34-1032; P05556 21-798); assay: cell-based or functional assay
[2] = target: T1, human LPAM-1-Fc (alpha4-Fc/beta7-Fc heterodimer) (human); assay: ELISA, LPAM-1-Fc coated, 1 mM MnCl2; from EC50 values
T1 construct: Soluble heterodimer from CHO cells, Protein A purified
Method: The relative binding affinities of various 2D-VCAM variant proteins to immobilized LPAM-1-Fc (α4-Fc/β-7-Fc) heterodimer, relative to a control protein (e.g., Q38L-2D-VCAM-1 or human 2D-VCAM-1), were determined using a solid-phase ELISA assay. MAXISORP™ ELISA plates (NUNC) were coated overnight at 4° C. with 50 ul LPAM-1-Fc heterodimer (2 ug/ml in TBS-M, TBS (25 mM TRIS-HCl pH 7.5, 150 mM NaCl with 1 mM MnCl2), washed with TBS-T (TBS with 0.05% Tween-20), blocked with 200 ul 3% milk in TBS-M for 1 hr at room temperature, and washed again with TBS-T. A four-fold dilution series of the purified 2D-VCAM-1 variants to he assayed was made in COSTAR U-bottom plates in TBS-TMC (TBS with 0.05% Tween-20, 1 mM MnCl2 and 1% casein; Sigma) with a starting concentration of 8.2 uM (200 ug/ml). The dilution, series were transferred into the ELISA plate which was incubated at room temperature for 2 h and subsequently washed with TBS-T. Bound 2D-VCAM-1 protein was detected by incubation with 0.5 ug/ml of biotinylated anti-human VCAM antibody (R&D Systems, Catalog No. BAF809) in TBS-TMC for 1 h at room temperature followed by a TBS-T wash and subsequent incubation with 1:2000 dilution of streptavidin-HRP (BD Biosciences, Catalog No. 554066) in TBS-TMC for 30 min at room temperature. […] Typical development times ranged from 5-15 min and development was stopped by addition of 50 ul 2M H₂SO₄ (EM, Catalog No. SX1244-75). […] Fold-improvement in binding was calculated relative to a control protein (Q38L-2D-VCAM-1) assayed on the same plate.

[3] = target: T1, human LPAM-1-Fc (alpha4-Fc/beta7-Fc …); assay: SPR (BIACORE), retest with new polypeptide preparations and new LPAM-1-Fc
Method: In this screening method, Biacore sensor chips were derivatized with anti-human IgG. After capture of VLA4-Fc or LPAM-1-Fc ligands on these surfaces, 2D-VCAM-1 variant polypeptides in buffer were allowed to flow over the ligand-coated sensor chips. The ability of a 2D-VCAM variant polypeptide to bind to a specific binding partner (i.e., VLA4-Fc or LPAM-1-Fc) was evaluated. Control protein (i.e., human 2D-VCAM-1 polypeptide (SEQ ID NO:2) or Q38L-2D-VCAM-1 polypeptide (SEQ ID NO:10)), was also allowed to flow over the ligand-coated sensor chips and the abilities of these molecules to bind to VLA4-Fc or LPAM-1-Fc were similarly evaluated for comparison. Using the Biacore system, the association (kₒₙ) and dissociation (koff) rate constant of the protein of interest binding to VLA4-Fc or LPAM-1-Fc ligands can be evaluated and used to calculate the equilibrium dissociation constant, KD. Variant 2D-VCAM-1 polypeptides having increased binding affinities for VLA4-Fc and/or LPAM-1-Fc, compared to human 2D-VCAM-1 and/or Q38L-2D-VCAM-1, were identified.
All BIACORE analyses were performed on a BIACORE 2000 system or BIACORE 3000 system (GE Healthcare) at room temperature (RT, 25° C.), HBS-P buffer (10 mM Hepes (pH 7.4), 150 mM NaCl, 0.005% surfactant P20) supplemented with 1 mM MnCl₂ (HBS-P-Mn) was used as the flow buffer for all experiments except where indicated.
Table 6B presents binding affinities of representative 2D-VCAM-1 variant polypeptides of the invention to LPAM-1-Fc when retested with new polypeptide preparations and new LPAM-1-Fc ligand and measured by the standard BICORE assay described above. The controls human 2D-VCAM-1 or the Q38L 2D-VCAM-1 polypeptide was not reassayed.

[4] = target: T2, human VLA4-Fc (alpha4-Fc/beta1-Fc heterodimer) (human); assay: ELISA, VLA4-Fc coated, 1 mM MnCl2; from EC50 values; ELISA, VLA4-Fc coated on plate, 1 mM MnCl2 (activated VLA4); fold relative to Q38L-2D-VCAM-1
T2 construct: Soluble heterodimer from CHO cells, Protein A purified; also called VLA-Fc
Method: The relative binding affinities of various 2D-VCAM-1 variants to immobilized VLA4-Fc (α4-β1-Fc) heterodimer, relative to a control protein (e.g., Q38L-2D-VCAM-1 or to human 2D-VCAM-1), were deter using a solid-phase ELISA assay. […] The dilution series was transferred into the ELISA plate which was incubated at room temperature for 2 h and subsequently washed with TBS-T. Bound 2D-VCAM protein was detected by incubation with 0.5 ug/ml of biotinylated anti-human VCAM antibody (R&D Systems, Catalog No. BAF809) in TBS-TMC for 1 h at room temperature followed by a TBS-MT (TBS plus 1 mM MnCl2 and 0.02% TWEEN-20) wash and subsequent incubation with 1:2000 dilution of streptavidin-HRP (BD Biosciences, Catalog No. 554066) in TBS-TMC for 30 min at room temperature. […] Fold-improvement in binding was calculated relative to a control protein (e.g., Q38L-2D-VCAM-1 or human 2D-VCAM-1) assayed on the same plate.

T1 sequence (chain, as listed by the source limits assumed, chain 1 of 2): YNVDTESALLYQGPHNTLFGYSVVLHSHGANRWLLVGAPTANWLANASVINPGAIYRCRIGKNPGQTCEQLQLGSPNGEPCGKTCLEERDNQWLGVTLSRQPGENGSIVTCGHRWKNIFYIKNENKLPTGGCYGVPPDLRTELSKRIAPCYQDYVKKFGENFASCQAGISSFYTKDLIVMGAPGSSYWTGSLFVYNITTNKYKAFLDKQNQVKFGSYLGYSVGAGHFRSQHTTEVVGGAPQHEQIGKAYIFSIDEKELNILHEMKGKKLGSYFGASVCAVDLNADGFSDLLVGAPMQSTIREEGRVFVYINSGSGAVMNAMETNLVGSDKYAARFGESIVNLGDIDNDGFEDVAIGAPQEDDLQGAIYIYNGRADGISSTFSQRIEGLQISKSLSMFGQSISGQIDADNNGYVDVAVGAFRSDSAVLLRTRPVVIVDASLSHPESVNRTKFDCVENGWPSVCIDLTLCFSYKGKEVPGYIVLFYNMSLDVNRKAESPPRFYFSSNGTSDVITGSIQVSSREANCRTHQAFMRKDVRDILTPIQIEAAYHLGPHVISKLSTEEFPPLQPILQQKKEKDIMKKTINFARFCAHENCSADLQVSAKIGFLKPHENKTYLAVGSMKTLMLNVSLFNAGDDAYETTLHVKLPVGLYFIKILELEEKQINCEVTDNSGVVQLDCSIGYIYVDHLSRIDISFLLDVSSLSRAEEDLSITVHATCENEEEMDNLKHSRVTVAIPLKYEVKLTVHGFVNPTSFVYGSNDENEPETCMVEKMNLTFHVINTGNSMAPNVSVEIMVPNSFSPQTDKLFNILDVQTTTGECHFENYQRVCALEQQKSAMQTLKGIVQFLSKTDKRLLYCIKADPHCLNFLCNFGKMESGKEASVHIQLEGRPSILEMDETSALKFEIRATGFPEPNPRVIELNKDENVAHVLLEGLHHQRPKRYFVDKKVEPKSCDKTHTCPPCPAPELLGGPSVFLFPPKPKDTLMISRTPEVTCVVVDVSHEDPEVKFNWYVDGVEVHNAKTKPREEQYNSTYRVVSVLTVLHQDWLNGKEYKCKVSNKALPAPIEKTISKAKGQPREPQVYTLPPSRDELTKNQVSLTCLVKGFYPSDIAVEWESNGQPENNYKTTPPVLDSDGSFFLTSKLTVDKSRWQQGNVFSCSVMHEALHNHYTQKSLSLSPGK
T1 sequence (chain, as listed by the source limits assumed, chain 2 of 2): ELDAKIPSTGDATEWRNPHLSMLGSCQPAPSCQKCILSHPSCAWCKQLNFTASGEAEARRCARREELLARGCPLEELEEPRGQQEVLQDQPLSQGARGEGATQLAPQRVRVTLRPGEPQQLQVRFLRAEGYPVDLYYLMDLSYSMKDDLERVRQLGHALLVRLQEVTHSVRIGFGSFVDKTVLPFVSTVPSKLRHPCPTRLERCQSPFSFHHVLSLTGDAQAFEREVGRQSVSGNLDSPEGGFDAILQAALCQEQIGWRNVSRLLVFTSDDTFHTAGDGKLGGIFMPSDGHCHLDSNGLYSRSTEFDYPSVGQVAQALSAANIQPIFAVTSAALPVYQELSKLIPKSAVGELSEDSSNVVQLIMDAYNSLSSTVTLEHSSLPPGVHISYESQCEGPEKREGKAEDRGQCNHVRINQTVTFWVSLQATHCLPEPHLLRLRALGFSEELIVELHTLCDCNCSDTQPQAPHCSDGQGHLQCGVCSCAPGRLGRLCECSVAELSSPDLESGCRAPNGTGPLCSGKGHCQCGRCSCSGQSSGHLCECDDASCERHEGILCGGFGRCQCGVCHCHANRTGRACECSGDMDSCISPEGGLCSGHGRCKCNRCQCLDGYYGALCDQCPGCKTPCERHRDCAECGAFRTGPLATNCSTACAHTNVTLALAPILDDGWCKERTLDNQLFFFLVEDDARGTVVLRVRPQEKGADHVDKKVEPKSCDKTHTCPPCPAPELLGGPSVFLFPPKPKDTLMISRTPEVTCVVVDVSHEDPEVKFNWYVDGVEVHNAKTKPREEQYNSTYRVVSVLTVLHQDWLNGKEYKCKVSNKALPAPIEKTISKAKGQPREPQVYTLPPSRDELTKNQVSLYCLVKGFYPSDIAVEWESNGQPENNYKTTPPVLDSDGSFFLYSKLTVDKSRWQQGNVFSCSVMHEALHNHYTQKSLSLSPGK
Chain of human VLA4 (integrin alpha4beta1) on the surface of U937 cells (P13612 34-1032, chain 1 of 2): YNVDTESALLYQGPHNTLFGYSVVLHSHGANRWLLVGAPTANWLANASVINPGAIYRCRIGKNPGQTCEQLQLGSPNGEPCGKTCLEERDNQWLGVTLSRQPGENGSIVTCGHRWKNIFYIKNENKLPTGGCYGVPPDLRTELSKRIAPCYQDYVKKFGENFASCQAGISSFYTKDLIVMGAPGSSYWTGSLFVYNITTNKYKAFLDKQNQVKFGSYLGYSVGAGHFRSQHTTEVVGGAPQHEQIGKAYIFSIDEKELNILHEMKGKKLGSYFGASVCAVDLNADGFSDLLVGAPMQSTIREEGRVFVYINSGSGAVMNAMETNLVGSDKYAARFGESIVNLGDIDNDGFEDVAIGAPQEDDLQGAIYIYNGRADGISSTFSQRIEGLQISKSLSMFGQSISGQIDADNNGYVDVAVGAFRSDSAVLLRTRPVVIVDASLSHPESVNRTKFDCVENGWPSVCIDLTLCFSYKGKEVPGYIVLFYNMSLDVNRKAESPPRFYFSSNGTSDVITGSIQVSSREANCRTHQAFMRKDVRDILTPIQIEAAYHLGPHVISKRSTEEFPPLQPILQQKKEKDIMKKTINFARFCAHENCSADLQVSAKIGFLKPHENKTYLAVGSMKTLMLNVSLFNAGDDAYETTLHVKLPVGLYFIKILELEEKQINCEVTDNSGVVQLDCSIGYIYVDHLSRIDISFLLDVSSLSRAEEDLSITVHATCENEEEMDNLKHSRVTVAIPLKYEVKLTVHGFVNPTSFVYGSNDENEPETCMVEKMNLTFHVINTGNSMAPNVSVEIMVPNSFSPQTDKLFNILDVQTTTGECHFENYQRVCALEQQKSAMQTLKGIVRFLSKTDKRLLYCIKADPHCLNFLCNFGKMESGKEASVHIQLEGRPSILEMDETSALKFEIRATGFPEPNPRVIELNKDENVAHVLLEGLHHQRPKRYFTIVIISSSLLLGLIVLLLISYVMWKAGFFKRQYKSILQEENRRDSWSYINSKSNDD
Chain of human VLA4 (integrin alpha4beta1) on the surface of U937 cells (P05556 21-798, chain 2 of 2): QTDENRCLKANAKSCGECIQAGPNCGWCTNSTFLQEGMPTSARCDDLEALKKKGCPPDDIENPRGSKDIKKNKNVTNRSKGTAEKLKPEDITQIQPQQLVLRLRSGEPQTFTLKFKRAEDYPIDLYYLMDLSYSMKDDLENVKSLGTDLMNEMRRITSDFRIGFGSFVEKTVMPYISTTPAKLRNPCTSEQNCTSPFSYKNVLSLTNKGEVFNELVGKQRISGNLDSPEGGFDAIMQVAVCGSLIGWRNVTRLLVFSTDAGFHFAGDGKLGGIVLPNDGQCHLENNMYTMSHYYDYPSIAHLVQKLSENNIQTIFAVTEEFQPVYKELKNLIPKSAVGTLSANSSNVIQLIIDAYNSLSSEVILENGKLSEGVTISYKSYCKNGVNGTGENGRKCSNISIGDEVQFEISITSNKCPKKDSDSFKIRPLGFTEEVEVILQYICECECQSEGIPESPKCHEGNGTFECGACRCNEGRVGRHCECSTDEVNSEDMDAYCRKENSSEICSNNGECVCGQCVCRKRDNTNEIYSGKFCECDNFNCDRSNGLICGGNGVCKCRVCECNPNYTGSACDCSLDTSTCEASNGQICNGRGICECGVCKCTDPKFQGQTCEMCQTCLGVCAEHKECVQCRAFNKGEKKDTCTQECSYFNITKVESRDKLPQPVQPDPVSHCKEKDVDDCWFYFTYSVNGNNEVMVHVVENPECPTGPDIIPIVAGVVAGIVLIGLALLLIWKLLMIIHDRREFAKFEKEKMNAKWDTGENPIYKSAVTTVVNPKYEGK
T2 sequence (chain, as listed by the source limits assumed, form in doubt, chain 1 of 2): as the sequence (chain, as listed by the source limits assumed, chain 1 of 2) above
T2 sequence (chain, as listed by the source limits assumed, form in doubt, chain 2 of 2): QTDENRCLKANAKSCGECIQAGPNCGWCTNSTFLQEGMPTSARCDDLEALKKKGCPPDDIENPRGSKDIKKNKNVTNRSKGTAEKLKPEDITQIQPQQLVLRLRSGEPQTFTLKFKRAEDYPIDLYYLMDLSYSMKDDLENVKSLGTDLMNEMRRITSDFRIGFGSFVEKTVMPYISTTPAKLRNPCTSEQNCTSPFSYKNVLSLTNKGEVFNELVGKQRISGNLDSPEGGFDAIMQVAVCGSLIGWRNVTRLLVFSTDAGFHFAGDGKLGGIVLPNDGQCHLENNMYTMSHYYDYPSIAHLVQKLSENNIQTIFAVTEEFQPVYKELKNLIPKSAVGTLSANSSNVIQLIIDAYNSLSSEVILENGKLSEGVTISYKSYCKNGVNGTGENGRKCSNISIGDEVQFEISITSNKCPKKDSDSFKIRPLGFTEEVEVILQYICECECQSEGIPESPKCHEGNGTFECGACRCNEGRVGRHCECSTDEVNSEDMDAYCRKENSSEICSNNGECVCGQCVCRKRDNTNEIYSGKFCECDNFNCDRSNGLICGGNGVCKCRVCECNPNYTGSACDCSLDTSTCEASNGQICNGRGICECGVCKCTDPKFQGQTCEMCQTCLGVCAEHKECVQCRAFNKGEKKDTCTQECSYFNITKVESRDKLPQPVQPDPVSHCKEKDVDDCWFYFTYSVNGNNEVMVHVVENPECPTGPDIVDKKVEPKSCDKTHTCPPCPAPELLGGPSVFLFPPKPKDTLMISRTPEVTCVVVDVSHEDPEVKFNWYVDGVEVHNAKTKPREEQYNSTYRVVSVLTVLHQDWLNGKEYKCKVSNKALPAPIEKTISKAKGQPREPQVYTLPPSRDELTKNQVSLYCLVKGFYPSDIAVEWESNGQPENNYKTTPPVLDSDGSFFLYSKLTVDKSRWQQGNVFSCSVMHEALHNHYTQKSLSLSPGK

| Binder | IC50 of inhibition of U937 cell adhesion to immobilized 7D-VCAM-1 [1] | fold improvement in binding relative to Q38L-2D-VCAM-1 [2] [fold] | Kd [3] [nM] | fold-improvement in binding relative to Q38L-2D-VCAM-1 [4] [fold] |
| --- | --- | --- | --- | --- |
| B1 | 6.4 nM and 0.16 mg/ml | 1 | 77 | – |
| B2 | – | 17 | 40 | – |
| B3 | – | 1 | – | – |
| B4 | 0.8 nM and 0.02 mg/ml | 74 | 1.2 | 37 |
| B5 | – | 80 | 2.6 | – |
